In assay [1] the target is T1, recombinant human MOG protein (human, UniProt Q16653 30-154, limits assumed).
T1 construct: Bought recombinant protein; also called HMOG
T1 sequence (looked up): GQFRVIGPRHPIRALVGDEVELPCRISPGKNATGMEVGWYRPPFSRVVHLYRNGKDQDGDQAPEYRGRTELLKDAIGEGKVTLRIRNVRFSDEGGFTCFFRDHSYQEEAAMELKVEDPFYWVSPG
The experiment in a line: phage-scFv ELISA on coated recombinant human MOG (0.5 µg/well), anti-M13 HRP, OD450 over BSA background. The protocol: (§1) The binding characteristics of the scFvs expressed on the surface of the phages isolated during the screening were determined using an ELISA assay using the recombinant MOG protein (R&D system). Along with the selected clones, phage-scFv-8-18C5 is expressed to serve as a positive control for ELISA. Briefly, phage-scFv were produced in the form of clones isolated on a 96-well plate in 800 μl of 2YT/ampicillin/glucose cultures infected with the helper phage M13K07 (as described previously). The phages produced overnight at 26° C. were then recovered in the supernatants after 30 minutes of centrifugation at 3000 g. These supernatants were directly diluted 1/2 in PBS/4% BSA/0.1% Tween 20 and tested on Maxisorp immunoplates previously coated with 0.5 μg of human or murine MOG or PBS (background control (bdf) in BSA)/well and blocked with 4% BSA in PBS. After incubation for 2 hours at 37° C., the wells were washed 3 times with PBS/0.1% Tween-20 and bound phages-scfv were detected with anti-M13 HRP antibody (GE Healthcare). The plate is read at 450 nm (OD) on a plate reader (TECAN). The results are expressed as a ratio: OD on target/OD bdf (OD on an uncoated plate saturated with BSA) and the ratios are compared with that obtained for the positive control.
Background: In an ELISA, binding on a coated surface is turned into a signal by an enzyme label.

Assay [2] concerns the target T2, recombinant murine MOG protein (murine, UniProt Q61885 29-156, limits assumed).
T2 construct: Bought recombinant protein; also called MMOG
T2 sequence (looked up): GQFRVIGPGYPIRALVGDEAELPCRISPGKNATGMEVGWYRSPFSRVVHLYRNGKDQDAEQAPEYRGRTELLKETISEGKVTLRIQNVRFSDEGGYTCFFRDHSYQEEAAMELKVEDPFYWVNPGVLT
The experiment in a line: phage-scFv ELISA on coated recombinant murine MOG (0.5 µg/well), anti-M13 HRP, OD450 over BSA background. The protocol: as §1

B1: anti-MOG MO4H-04 antibody (scFv, V domains shown)
VH: EVQLVQSGAEVKKPVASVKVSCKASGYTFTSYGISWVRQAPGQGLEWMGWISAYNGNTNYAQKLQGRVTMTTDTSTSTAYMELRSLRSDDTAVYYCARNMGCSSTSCFVSWFDPWGQGTLVTVSS
VL: QSALTQPPSASGSPGQSVTISCTGTHSDVGSFDSVSWYQQHPDKAPKLIIYDVNKRPAGVPHRFSGSKSGNTASLTVSGLQSEDEADYYCNSYAGVDNFVFGTGTKVTVL
As to B1, the entries for the “ratio OD on target/OD bdf” value in assay [1] and in assay [2] were 9.36 ratio and 9.78 ratio, respectively.

B2: anti-MOG MO3J-05 antibody (scFv, V domains shown)
VH: EVQLVQSGAEVKKPGASVKVSCKASGYTFTSYGISWVRQAPGQGLEWMGWISAYNGNTNYAQKLQGRVTMTTDTSTSTAYMELRSLRSDDTAVYYCARNMGCSSTSCFVSWFDPWGQGTLVTVSS
VL: not shown
On to B2, for which the “ratio OD on target/OD bdf” value came to 16.4 ratio in assay [1] and 7.53 ratio in assay [2].

B3: anti-MOG MO3J-19 antibody (scFv, V domains shown)
VH: EVQLVQSGAEVKKPGASVKVSCKASGYTFTSYGISWVRQAPGQGLEWMGWISAYNGNTNYAQKLQGRVTMTTDTSTSTAYMELRSLRSDDTAVYYCARNMGCSSTSCFVSWFDPWGQGTLVTVSS
VL: QSVLTQPPSASGTPGQRVTISCSGSTSNIGSQIVNWYQQLPGTAPRLIIYNDNERPSGVSDRFSGSKSDTSASLAISGLQSEDEADYYCAAWDDSLNGYVFGTGTKVTVL
With B3, the “ratio OD on target/OD bdf” value in assay [1] is 11.7 ratio; in assay [2], 5.66 ratio.

B4: anti-MOG MO3B-03 antibody (scFv, V domains shown)
VH: QVQLQQSGPGLVRPSQTLSLTCAISGDSVSSSSAAWNWVRSPSRGLEWLGRTYYRSKWYYDYAVSVKNRIAINPDTSKNQFSLHLNSVTPEDTAVYYCATGWLRGHLDYWGQGTLVTVSS
VL: AIQMTQSPSSVSASVGDRVTITCRATQSISTYLNWYQQKVGRGPKLLVYAASRLQTGVPSRFSGSGSGTDFTLTISSLQPEDSATYYCQQSYSAPPAFGGGTKVEIK
notes: T0004 labels followed
With B4, the entries for the “ratio OD on target/OD bdf” value in assay [1] and in assay [2] were 6.23 ratio and 5.55 ratio, respectively.

B5: anti-MOG MO4B-43 antibody (scFv, V domains shown)
VH: DEVQLLESGGGLVPGGSLRLSCEVSGFSFSNHAMHWVRQAPGKALEHLSVLGSDGRSTYYADSVKGRFTISRDISKTTVYLQMGSLRPGDMGVYYCARGLYGDHWDASDLWGQGTMVTVSS
VL: EIVMTQSPATLSVSPAERVILSCRASQSVGNNVAWFQQKPGQAPRLLIHGASSRATGIPTRFSGSGSGTELTLTISSLQSEDFAVYYCQQYGSAPITFGQGTRLEIK
Take B5: the results for the “ratio OD on target/OD bdf” value in assay [1] and in assay [2] were 5.82 ratio and 9.56 ratio, respectively.

B6: anti-MOG MO3J-12 antibody (scFv, V domains shown)
VH: EVQLLESGGGLVQPGGSLRLSCAASGFTFSTYWMHWVRQAPGRGLVWVSRINTDGSSTDYADSVKGRFTISRDNAKNTLYLQMNSLRAEDTAVYSCARGGQLVAAANDNWLDPWGQGTLVTVSS
VL: AIQLTQSPSSLSASAGDRVTITCRASQSINNYLNWYQQKPGKAPKVLIYGASNLQSGVPSRFSGSGSGTDFTLTISSLQPEDFATYYCQQSYSTPRTFGQGTKVEIK
Regarding B6, the “ratio OD on target/OD bdf” value in assay [1] came to 16.4 ratio; in assay [2], 8.99 ratio.

B7: anti-MOG MO4H-51 antibody (scFv, V domains shown)
VH: QVQLVQSGAEVKKPGASVKVSCKASGYTFTSYGMHWVRQAPGQRLEWMGWINPGNGNTKYSQKFQGRVTITRDTSASTAYMDLSSLRSEDTAVYYCARLPRIGGWFDPWGQGTLVTVSS
VL: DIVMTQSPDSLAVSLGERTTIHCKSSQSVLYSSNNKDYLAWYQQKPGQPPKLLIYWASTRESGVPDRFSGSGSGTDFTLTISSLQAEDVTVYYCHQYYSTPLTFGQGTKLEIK
Regarding B7, in assay [1], the “ratio OD on target/OD bdf” value came to 3.46 ratio.

B8: anti-MOG MO4H-65 antibody (scFv, V domains shown)
VH: EVQLVQPGAEVKKPGASVKVSCKASDYTFTSYGISWVRQAPGQGLEWMGWISAYNGNTYYARKFGRVTMTTDTSTTTAYMELRRLRSEDTAVYYCARSGVDNIDYLFDYWGQGTLVTVSS
VL: EIVMTQSPGTMSVSPGESATLSCRASQSVSSNLAWYQQKPGQAPRLLIYGASTRATGLPARFSGSGSRTDFTLTISSLQPEDFATYYCQQTTSFPLTFSGGTKLEIT
For the molecule B8, in assay [1], the “ratio OD on target/OD bdf” value was 2.44 ratio.

B9: anti-MOG MO4H-55 antibody (scFv, V domains shown)
VH: QVQLQQSGPGLVKPSQTLSLTCAISGDSVSSNSAAWNWIRQSPSRGLEWLGRTYYRSKWYNDYAESVKSRMTVTSDTSKNQVSLHLNSVTPEDTAVYYCAREHIAVPGVFDIWGQGTLVTVSS
VL: DVVMTQPPSASGTPGQGVTISCSGSSSNIGSNTVNWYQQLPGTAPKLLIYGSGQRPSGVPDRFSGSRSGTSASLAISGLQSEDEADYYCAAWDDSLNGRVFGQGTKVDIT
As to B9, the “ratio OD on target/OD bdf” value in assay [1] turned out to be 2.99 ratio.

B10: anti-MOG MO4H-46 antibody (scFv, V domains shown)
VH: QVQLVQSGAEVKKPGASVKVSCKASGYTFTSYAMHWVRQAPGQRLEWMGWINAGNGNAKYSQKFQGRVTLTRDTSASTAYMKLSSLRSEDTAVYYCARGAPTYRYFDLWGRGTLVTVSS
VL: QSVLTQPPSVSAAPGQKVTISCSGSSSNIGNNYVAWYQQLPGTAPKLLIYDNNKRPSGIPDRFSGSKSGTSATLGITGLQTGDEADYYCGTSDSSLSAVVFGGGTKLTVL
On to B10, for which the entries for the “ratio OD on target/OD bdf” value in assay [1] and in assay [2] were 6.57 ratio and 4.68 ratio, respectively.

B11: anti-MOG MO4H-03 antibody (scFv, V domains shown)
VH: QVQLVQSGTEVKKPGASVKVSCKVSGYTLTELSMHWVRQAPGKGLEWMGGFDPEDGETIYAQKFQGRVTMTEDTSTDTAYMELSSLRSEDTAVYYCATGATGAFDIWGQGTTVTVSS
VL: DIVMTQTPLSSPVTLGQPASISCRSSQSLVDSDGNTYLNWLQQRPGQPPRLLIYKISNRFSGVPDRFSGSGAGTEFTLKISRVEAEDVGVYYCMQATQFPHTFGQGTKLEIK
Consider B11, for which the “ratio OD on target/OD bdf” value in assay [1] came out at 5.14 ratio; in assay [2] it was 9.12 ratio.

B12: anti-MOG MO4B-42 antibody (scFv, V domains shown)
VH: MAGSLQVDQVQLVQSGAEVKRPGESLKISCEGSGYSFTSSWIGWVRQMPGKGLECMGIIYPGDSDTRYSPSFQGHVTISADKSISTAYLQWSSLRASDTAMYYCARAYHSDYGFDFWGQGTLVTVSS
VL: EIVLTQPLSVSESPGKTVTISCTRSSGSIANNFVQWYQRRPGSSPTTVIYENDQRPSGVPDRFSGSIDSSSNSASLTITGLETQDEADYYCQSFNDDVGGGNSGGGTK
For the molecule B12, the “ratio OD on target/OD bdf” value in assay [1] came out at 6.11 ratio; in assay [2], 6.68 ratio.

B13: anti-MOG MO3J-72 antibody (scFv, V domains shown)
VH: EVQLVESGGGSVKPGGSLRLSCAASGFRFDDYAMHWVRQAPGKGLEWVSGISWNSGAIGYADSVQGRFTISGDNAKNTLYLQMNGLRVEDTAMYYCARDGHGDYPIDYWGQGTLVTVSS
VL: QSVLTQPPSVSGAPGQRVSISCTGSGSNIGAGFDVHWYQQVPGTTPKLLIYGNNNRPSGVPDRFSGSTSATSASLAITGLQADDEADYYCQSYDRSLRYVFGTGTKLTVL
Take B13: in assay [1], the “ratio OD on target/OD bdf” value amounted to 2.05 ratio.

B14: anti-MOG MO3F-02 antibody (scFv, V domains shown)
VH: QVQLQQSGPGLVKPSQTLSLTCAISGDSVSSNSAAWNWIRKSPSRGLEWLGRTYYRSKWYNDYAVSVKSRITINPDTSKNQFSLQLSSVTPEDTAVYYCARASAGTFGYWGQGTLVTVSS
VL: DIVMTQSPSSLSASVGDRVTMTCRASQTINTYLNWYQQKPGKAPKLLIYAASTLQSGVPSRFSGSGSGTDFSLTISSLQPEDFATYYCQHGYNNPPFTFGPGTKVDIK
Consider B14, for which the “ratio OD on target/OD bdf” value was 13.8 ratio in assay [1] and 22.1 ratio in assay [2].

B15: anti-MOG MO3J-23 antibody (scFv, V domains shown)
VH: DQVQLVQSGAEVKPGASVKVSCKASGYTFTSYGISWVRQAPGQGLEWMGWISAYNGNTNYAQKLQGRVTMTTDTSTSTAYMELRSLRSDDTAVYYCARDPVGSLRPYYMDVWGEGTTVTVSS
VL: DIVMTQSPSTLSASVGDRVTITCRASQSISTWLAWYQQKPGKAPKLLIYAASSLQSGVPSRFSGSGSGTDFTLTISSLQPEDFATYYCQQSYSTPRTFGQGTKVEIK
Take B15: the “ratio OD on target/OD bdf” value amounted to 15.9 ratio in assay [1] and 7.46 ratio in assay [2].

Source of the values: US20210238281A1 (INSTITUT NATIONAL DE LA SANTE ET DE LA RECHERCHE MEDICALE …, published 2021).
